Measured values from a protein production outcome set (Wang et al. 2014).

Assay: label from the status in PepcDB records

Sequence	protein production
MLKELFVNLTILITFNYLFTHLFKERLVHKKDSISFQAVKGLACGLLGVILMVFGFTYQHSIIDLRNIPIMIAALYGGWVSTATALAMITAGRLLITMNTSALYSVIIICIAAIPSLIVSRRKKVQLKHAFYLLIITNSLISFSFYFLIDLHSYELHLYFWIISIAGGMLSLYIIDHETNAHLLFKQYKFQAHFDFLTGVYNRRKFEETTKALYQQAADTPHFQFALIYMDIDHFKTINDQYGHHEGDQVLKELGLRLKQTIRNTDPAARIGGEEFAVLLPNCSLDKAARIAERIRSTVSDAPIVLTNGDELSVTISLGAAHYPNNTEQPGSLPILADQMLYKAKETGRNRVCFSEKKE	failed
MLKIYVVDNGGQWTHREWRVLRELGVDTKIVPNDIDSSELDGLDGLVLSGGAPNIDEELDKLGSVGKYIDDHNYPILGICVGAQFIALHFGASVVKAKHPEFGKTKVSVMHSENIFGGLPSEITVWENHNDEIINLPDDFTLAASSATCQVQGFYHKTRPIYATQFHPEVEHTQYGRDIFRNFIGICASYREIQKENFQH	not failed
MLKKITCYTVLYIFILLNQPIQAQTYVIPDANFKNYLALNIPYVLNSNQELIISNAKIFTGTINCVGMNIEDLSGLQYFYKLTQLNCNSNQLTFLPSLDSLKQLQHMWVYNNKLTSIPSVNQLTNLQTLNVKNNQLTNLPSLTGMTALKSLDCSSNKLTALPDLSTLLNLEEMYCYINFITNIPSVSNLLHLKIFNIENNAIALLPDISQNTKLEILQFDLNQIETIPPLTTLTALKQLIFAHNKISTLPDLSANTALFIITGDNNQLTHIPDLSGFDNLTHVELSHNQLTFEDILPSSKHPQFSTVFNIQPQDSLNVNQPVSAVKGSTITLPLQFDLAVSGSTYNWYKNNIYLSSTTIPVLTLSNITEMNAGRYTCIITNNTSRLTGITLHARSYSILVEPCIKFSYINYEITANDCSKGAAIQIDHTQISALNTPLTYALHPLNNQSSITSASAVLNDVMPGRYSLTISDVNNCSVELQNYIFIPVPAGCMDSFTPNGDGLEDTYLIDKPGYTKIYNKNGTLIRTLNTPAAWDGSDESGKLCPMGYYIIIIDGKEKTGVVLIN	failed
MLKLAQAEEAEAKRGKLKIFLGYAAGVGKTYAMLQAARERRHEGRDVVAAYVESHGRPETDALLEGLEILPAARIEYQGVMLPELDIDGVLARRPQLALVDELAHTNAPGSRHEKRWQDVEELLAAGIDVFTTVNVQHFESLNDVVAQITGIAVRETVPDRLLDLAAEIRLVDIPPEDLLQRLREGKVYVPEQAAFAAEKFFRAGNLIALRELSLRRAAVRVDEEMRAYMEARAIPGPWPAAERLLVSISGSPFSERLIRTTRRLADELKAPWFTVYVETPGNGRHEQENRKRVWKDLRLAESLGAQVATVTATSVAEALIDYARRHNVTRIVVGKPAKPRWREFLRLPLVDRIIRLSGAIDVHVVSYEPAEAGKGPVLPVRRGPISFSGYLASLALVVAASLACLLLRPFLAPTNMVMIYLLAVVLAALRLGLKPAILTAFLGVLAFDFFFIPPHLTFAVADTQYLITFVALFTVGVVISTLVSTVRERAEAVREREEQTASLYYLSRDLAAAADIETLVAAVIRNIGETLFARAAVLLPEGDRLRVAAASKGLKPDVKEMAVADWAFRNRQTAGQGTETLASAGFLYLPLQTSGSVLGVLGVRLKNDADYRSTQVRRMLDAFTSQTAMALERVQLSRQAEQAQILQARENLERALLNSISHDLRTPLVAITGALDTLRDKVHTLADESRLELLDTAWEEAERLNRFVGNLLDMTRLESGAIKLKRELSDVQDLIGCALAALERRIGERGIDVRLAPDLPLVRIDMVLMTQVLVNLLDNALKYSPPDSGVEITARVDGGRLRIEMADRGPGIPEQDLKRVFDKFYRIAVPEGAQGTGLGLSICKGIVEAHGGSIRAENRTGGGLRVIVTLPLAGGAKEGVSHGP	failed
MLKNLRIRKFEPEEEYVHFTYSIKNSEREKSKELIKEYRTLLQKAIDYLWNLTKIQVRKKNGSYKITLPKKKEVYKPLREELEKINHLASHYVDKAINDAFSILKSWRKRAIKGRASIEKPTLKKAYVRIKTTLRKVVGESVRITVRPYEYITFSWSKSWFSRRVRELELGEPIIKEEKVYLPFRYKLPWVTPVNFLAIDSNLYTLDAYDGEKFVTISLKQLYSLKYSMEVKRAKVQSFASKHTKRGRELMRKYSHRERNRVLDFVHKFVNTLLDLYPMTFFAVEKLNKESMFKDANGSLSRKISRTVWRSIHRVLKYKAPLYGSFVKEVNPHLTSRSCPRCGFVSRKVGKTFECERCGFKLDRQLNASLNIYLKMCGFPHIRDIPRVWVGVIPLMGRRGMNVRDFGEAQGLRIDIKYHEILLEHHHHHH	failed
MLKNLRLKSFQPEEEYVHFTYSIKNDKREESKELIKEYTTLLQKAIDYLWSLTKIQVRKNGNYKITLPKKKEVYKPLRDELEKINHLASHYVDKAINDAFSILKSWRKRAIKGRASIEKPRVKKAYVRIKTTLRKVVGESVRITVRPYEYITFSWSKSWFSRRVRELELGEPIIKEEKVYLPFRYKLPWATPLNFLAIDSNLYTLDAYDGEKFVTISLKQLYSLKYSMEVKRAKVQSFASKHTKRGRELLRKYSHRERNRVLDFVHKFVNALLDLYPMTFFAVEKLNKESMFVDANDSLSRKISRTVWRSIHRVLKYKAPLYGSFVKEVNPRFTSRSCPRCGFVSRKVGKTFECERCGFKLDRQLNASLNIYLKMCGFPHIRDIARVWVGVIPLMGRRGMNGFPRDFGEAQGLRIDIKYHEIP	failed
MLKPMYYEFFFIFPKERELFESFLLDATHLALEESSLENLKAFDDKETIGFISQSNWHYFATHDPLKKDLKENLKEKPPHLKNFVILRSQKDLNNSLIPALEAFCLNLKQNLQSEFDFFYLSRNLASKDWLEAYKQAILPVQCTKFYIHPSWHQKPSHVVTNDCIMIDPALAFGSGHHESTSMCLELLSDIDLKRKNALDVGCGSGILSIALKKQGVSALVACDTDSLAVEETLKNFSLNQIPLLVQDKVIYGSTQKIEGRFDVIVANLVADVIKSLYSEFVRLCNHTLILSGILETHLNSVLQIYYNGFEVLEQRQRNEWVALKLLKKQPIN	failed
MLKRASFVEVDTASLRHNFSAVKSIVPKDACVMAVVKANAYGAGAIKASEIFLQEGANYLGVATLDEALELRSHFSKTPILILGYSPNANASMLVDNDLSAMIFSLEQAEVFSQMALKSQKRLKVHIKIDTGMHRLGLEPNFKSIETIKKIRALKGLEIEGIFTHLSNADAKIKTHAKNQMKAFNAFLEQLLDQKIEFQYRHAYNSAGILSLCNGNENRLLNLYRPGIMLYGFYPSNGMKESCPTILKNVISLKAQIVQIRSVKKGEFIGYGEHFYTNEETLVGVLALGYADGLMRALGNRIQVAINNQLAPLIGKVCMDQCFVKLNNIQAKEGDEVILFGDKSAKANDASEIXALLNTIAYETISTLSKRLERVYI	failed
MLKTSALAPCGKPMLIWPSQTSARRHGFSEASYCLWRSKFGGMSMPDAKRLKDLEAENTRLKKLLAEQVFQNDLIKDALQKMVSAPARRALVREWIAGGASERCALAAIGMSASALRYRPREDRNVELRERILALAHRHRRYGVGMISLKLRQEGRLVNYKRVERLYCEQQLQVRRRKRKKVPLGERAPLLRPTKANPVWSMDVVFDRTAEGRAIKCLVIVDDATHEAVAIDVERAISGHGVVRVLDRLAHSRGLPKMIRTDNGKEFCGKAMVAWAHANRVQLRQIQPGKPNQNAYVESFNGRLRDECLNKHGFPTLLHARTEIERWRREYNEHRPKKTIGGMTPAAYAQQLANSDIINPGL	failed
MLKTTKKSLLVFMGVFFLIFGVDQAIKYAILEGFRYESLMIDIVLVFNKGVAFSLLSFLEGGLKYLQILLILGLFIFLMRQRELFKNHAIEFGMVFGAGVSNVLDRFVHGGVVDYVYYHYGFDFAIFNFADVMIDVGVGVLLLKQFFFKQKQNKIKA	failed
MLKTVHQKAGRHTRPVRAWLKLLWQRIDEDNMTTLAGNLAYVSLLSLVPLIAVVFALFAAFPMFSDVSIQLRHFIFANFMPATGDVIQRYIEQFVANSNKMTAVGACGLIVTALLLMYAIDSALNTIWRSKRTRPKVYSFAVYWMILTLGPLLAGASLAISSYLLSLRWASDLNTVIDNVLRILPLLLSWISFWLLYSIVPTTRVPNRDALVGAFVAALLFEAGKKGFALYITMFPSYQLIYGVLAVIPILFVWVYWTWCIVLLGAEITVTLGEYRKLKQAAEQEEADQP	failed
MLKTVKLYARKAWNWLTSMRTALALLFLLAIAAIPGALLPQRSLNESNVIEYIENNGKLAEFYDKIQLFDVFSSTWFTAIYVLLLISLVGCILPRSWEHYKAMRAPVVRAPRNLERLAHNGEGLVEKREEEVEKDARKLLKGWKITEYSAEEDRAGVRSIAAEKGYTRELFNLIFHLGIVGMIVTAGLGRLFYYEGHVIVVTDGEQNQQNSVFCNTATANYDSFRAGANFDGTGLTTFCFEAHDFSADYLANGQAEMFRSNISYAVGDDIQNDPETWEDYELRVNHPLRIEGDRVYLQGHGFAPTFTVTWPNGETRTQTVQWRPDDPTFFLSSGVVRFDPPAGMYPDLYERRQNQLAIQGLFAPTAEWEGDNNELLTSSYPAMRDPAVAIDIYRGDNGLDTGIGQSLFSLDSSLMHSGVLQKIERVNLQIGDTVTLDDGTTVSFDGASEFANYQISRDPTQNWVLVTTVISLVSLVGSLMIRRRRIWVRFYPQENGTTRVETGGLARTDRAGWGGEYEKFHRELLGLKEEDEDEEYFDHDD	failed
MLKVFAMEMKDAKLYGGIGAILQLVGPFVPSIGFILALVGLVLVFLAVKTISEKSGDEGIFNNYLKAFIAQILGIIIFVGIIVATIGTAILKGGMGKLANPMEFMSLIGTILLGFIILWIFYTVAGYFKKKSYENSQYTGTDMFKTAGLLFFIGAILIILGIGVLIILIAEILEIVAFFSLPETSESAPVSA	failed
MLKVSVITACFNSEKTIEDTILSVLHQTYKNIEYIIIDGASTDSTLEIIQKHRDKIACVMSEKDEGIYDAMNKGIKRSSGDIIALLNSDDFYKDEFVVEKVVHEFERKNCDSVYADLVFVKPDCLEKVVRYYEIGEFNPKTLLYGVVPAHPTLFVKKAIYERYGLYKTDYKISADFEMIIRLFVVQKISFSYLKEVLVVMRTGGVSASGFKSLLLRNKENIRACKENGIQANVFSMLLKYPRKIMGLFKRGKGGLKRND	failed
MLKYSMHLNIILLEASLELVPKEIVNHPAVIKNAKRRNKKPEDTLLDISLHYHAMKYLENSHKRGRPDILHQALLVILTDPVIKGDIFIHTIQSKIIKVNPNMRPPKNYLRFIGLMEQLLKYGKIPINGDETLMEVTNLTLDNIVNRYDLILLSEKGEKINPEEICKLDEKWLLGIGAFPHGDFSDKILNLAKKIYSISGFPLETQQVLCRIFSACNSILGWPLEHHHHHH	failed
MLLAVEGGGLFSASASGYSKGLTLLFSGDKDVDRPMRVVPWNHYQVVDQEPEADPVLQLDSIKNRVSRGCAASFSCFGGASAGLETPSPLKVEPVQQQHREISSPESVVVVSEKGKDQISEADNGSSKEAFKLSLRSSLKRPSVAESRSLEDIKEYETLSVDGSDLTGDMARRKVQWPDACGSELTQVREFEPRYV	failed
